Four substances from publication PMC5555194 can be followed below.

pKd: −log10 of the molar value. Several values for one entry are separate records, joined by “and”; a condition that tells them apart may be missing. Equal values may be shown once.

Sequence of C3b (human) (P01024 23-667, chain 1 of 2): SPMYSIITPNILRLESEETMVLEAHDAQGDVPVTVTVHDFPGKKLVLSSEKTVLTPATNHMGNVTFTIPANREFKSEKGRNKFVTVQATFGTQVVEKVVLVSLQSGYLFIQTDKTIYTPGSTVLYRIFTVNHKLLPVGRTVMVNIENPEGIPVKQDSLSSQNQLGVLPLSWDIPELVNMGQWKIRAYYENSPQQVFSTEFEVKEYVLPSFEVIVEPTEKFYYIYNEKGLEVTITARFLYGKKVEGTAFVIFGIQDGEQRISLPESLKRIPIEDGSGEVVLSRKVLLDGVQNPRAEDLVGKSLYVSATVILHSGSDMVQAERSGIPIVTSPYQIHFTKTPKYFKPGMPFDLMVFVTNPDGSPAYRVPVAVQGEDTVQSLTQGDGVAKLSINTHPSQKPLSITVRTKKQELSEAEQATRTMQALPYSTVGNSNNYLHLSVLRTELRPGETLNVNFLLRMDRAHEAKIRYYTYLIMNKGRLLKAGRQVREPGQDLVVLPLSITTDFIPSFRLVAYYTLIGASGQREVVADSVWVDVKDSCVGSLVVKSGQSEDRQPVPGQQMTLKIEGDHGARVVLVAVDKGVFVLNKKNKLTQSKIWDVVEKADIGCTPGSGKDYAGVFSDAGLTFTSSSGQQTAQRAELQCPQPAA
Sequence of C3b (human) (P01024 749-1663, chain 2 of 2): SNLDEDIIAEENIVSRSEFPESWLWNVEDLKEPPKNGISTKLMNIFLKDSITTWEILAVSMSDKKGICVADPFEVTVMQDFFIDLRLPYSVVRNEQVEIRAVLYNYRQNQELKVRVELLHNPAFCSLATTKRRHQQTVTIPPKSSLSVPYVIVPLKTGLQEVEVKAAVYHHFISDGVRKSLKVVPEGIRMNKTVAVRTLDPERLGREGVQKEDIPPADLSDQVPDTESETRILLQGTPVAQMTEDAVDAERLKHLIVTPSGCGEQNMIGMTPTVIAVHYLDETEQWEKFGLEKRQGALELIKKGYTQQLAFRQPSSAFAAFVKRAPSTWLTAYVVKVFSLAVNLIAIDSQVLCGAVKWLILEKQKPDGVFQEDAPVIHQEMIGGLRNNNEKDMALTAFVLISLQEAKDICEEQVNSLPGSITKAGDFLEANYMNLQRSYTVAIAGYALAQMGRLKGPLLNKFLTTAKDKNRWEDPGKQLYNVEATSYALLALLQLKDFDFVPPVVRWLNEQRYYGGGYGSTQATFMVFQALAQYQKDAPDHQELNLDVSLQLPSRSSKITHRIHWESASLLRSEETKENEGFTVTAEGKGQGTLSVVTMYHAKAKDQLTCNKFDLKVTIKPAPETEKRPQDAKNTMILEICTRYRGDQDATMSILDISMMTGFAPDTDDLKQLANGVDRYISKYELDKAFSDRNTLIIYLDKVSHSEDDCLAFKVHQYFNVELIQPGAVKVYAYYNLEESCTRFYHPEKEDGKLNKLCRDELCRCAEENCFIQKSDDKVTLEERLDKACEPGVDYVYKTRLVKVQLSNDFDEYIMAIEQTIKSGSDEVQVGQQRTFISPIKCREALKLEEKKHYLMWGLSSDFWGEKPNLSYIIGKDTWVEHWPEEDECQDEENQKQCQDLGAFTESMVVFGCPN

This test concerns the target C3b (human) (UniProt P01024). As to the kind of experiment: SPR; C3b amine-coupled to a Biacore C1 chip; dilution series of CFH (from 2.5 to 0.019 uM), preincubated with or without a 2-fold molar excess of PspCN, flowed over; Biacore T200, 25 °C, 10 mM HEPES, 150 mM NaCl, 0.05% P20; 1:1 steady-state model; three experiments on different chips. (In general: Surface plasmon resonance follows binding to a sensor surface in real time, without labels.)
For “I62-CFH–PspCN complex (from UniProt P08603 19-1231; Q9KK19 37-140)”, the pKd is 6.21 and 6.30.
In the case of “LA-CFH–PspCN complex (from UniProt P08603 19-1231; Q9KK19 37-140)” it was 6.15 and 6.22; in that of “CFH purified from human plasma (plasma CFH) (from UniProt P08603 19-1231) (natural protein)”, 6.48; in that of “R53H-CFH–PspCN complex (from UniProt P08603 19-1231; Q9KK19 37-140)”, 6.00 and 6.24.

In general, pKd refers to the negative decadic logarithm of the Kd, by convention in mol/L. Higher therefore signals a low Kd.
